# Measurements from paper PMC8163975 (The Journal of Biological Chemistry, 2021).
# T1: RRAS1, mGppNHp-bound (human, UniProt P10301 1-218)
# T1 construct: human RRAS (RRAS1); Loaded with mGppNHp
# T1 sequence (looked up): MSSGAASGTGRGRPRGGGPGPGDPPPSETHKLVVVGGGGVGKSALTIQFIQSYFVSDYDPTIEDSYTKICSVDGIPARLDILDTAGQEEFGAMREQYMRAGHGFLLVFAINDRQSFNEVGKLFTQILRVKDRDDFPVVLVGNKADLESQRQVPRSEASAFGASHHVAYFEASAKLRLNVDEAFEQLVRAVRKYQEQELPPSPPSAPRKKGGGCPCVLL
# T2: RAP2A, mGppNHp-bound (human, UniProt P10114 1-183)
# T2 construct: human RAP2A; Loaded with mGppNHp
# T2 sequence (looked up): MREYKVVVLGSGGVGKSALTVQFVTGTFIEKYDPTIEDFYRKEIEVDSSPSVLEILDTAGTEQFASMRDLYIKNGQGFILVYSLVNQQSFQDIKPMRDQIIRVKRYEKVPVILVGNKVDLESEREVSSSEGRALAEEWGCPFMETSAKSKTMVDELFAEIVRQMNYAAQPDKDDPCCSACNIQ
# T3: RALA, mGppNHp-bound (human, UniProt P11233 1-206)
# T3 construct: human RALA; Loaded with mGppNHp
# T3 sequence (looked up): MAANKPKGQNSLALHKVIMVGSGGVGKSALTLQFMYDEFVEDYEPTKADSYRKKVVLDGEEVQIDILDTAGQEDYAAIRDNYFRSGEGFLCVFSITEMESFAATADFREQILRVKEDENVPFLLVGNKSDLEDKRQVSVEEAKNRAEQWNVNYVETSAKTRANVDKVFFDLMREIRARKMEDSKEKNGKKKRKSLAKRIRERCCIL
# B1: RAP1B, mGppNHp-bound (natural protein, human, UniProt P61224 1-184, looked up)
# chain: MREYKLVVLGSGGVGKSALTVQFVQGIFVEKYDPTIEDSYRKQVEVDAQQCMLEILDTAGTEQFTAMRDLYMKNGQGFALVYSITAQSTFNDLQDLREQILRVKDTDDVPMILVGNKCDLEDERVVGKEQGQNLARQWNNCAFLESSAKSKINVNEIFYDLVRQINRKTPVPGKARKKSSCQLL
# notes: human RAP1B; Loaded with mGppNHp
# Tests used:
# Details in all cases: both partners purified
# RRAS1, mGppNHp-bound [1] = biological target: T1, RRAS1, mGppNHp-bound; experiment: fluorescence polarisation; increasing concentrations of the RA/RB domain as MBP fusion protein (0.002-300 µM; or MBP alone) titrated to mGppNHp-bound RAS protein (1 µM); 30 mM Tris-HCl pH 7.4, 100 mM NaCl, 5 mM MgCl2, 3 mM DTT; Kd from a quadratic ligand-binding equation
# RIT1, mGppNHp-bound = biological target: T4, RIT1, mGppNHp-bound (human, UniProt Q92963 1-219); experiment: as above
# T4 construct: human RIT1; Loaded with mGppNHp
# T4 sequence (Q92963 whole entry): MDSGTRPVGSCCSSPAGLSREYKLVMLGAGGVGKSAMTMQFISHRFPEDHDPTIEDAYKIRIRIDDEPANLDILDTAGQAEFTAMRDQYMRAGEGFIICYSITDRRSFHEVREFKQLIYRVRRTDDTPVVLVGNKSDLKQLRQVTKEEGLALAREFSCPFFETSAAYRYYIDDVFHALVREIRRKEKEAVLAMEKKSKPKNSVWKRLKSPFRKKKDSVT
# RAP1B, mGppNHp-bound = biological target: B1; experiment: as above
# RAP2A, mGppNHp-bound = biological target: T2, RAP2A, mGppNHp-bound; experiment: as above
# RHEB1, mGppNHp-bound = biological target: T5, RHEB1, mGppNHp-bound (human, UniProt Q15382 1-184); experiment: as above
# T5 construct: human RHEB1; Loaded with mGppNHp; the discussion speaks of the RHEB G domain
# T5 sequence (Q15382 whole entry): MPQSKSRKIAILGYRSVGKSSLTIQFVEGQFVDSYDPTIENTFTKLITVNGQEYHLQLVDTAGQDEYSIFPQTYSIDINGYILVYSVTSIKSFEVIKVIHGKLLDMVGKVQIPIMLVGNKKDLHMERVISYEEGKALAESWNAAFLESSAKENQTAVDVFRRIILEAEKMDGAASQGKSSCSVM
# [2] = biological target: T6, CRAF RB domain, MBP fusion protein (human, UniProt P04049 51-131); experiment: as above
# T6 construct: source: E. coli (pMal-c5X-His vector), purified as MBP fusion protein
# RIT1•mGppNHp = biological target: T7, RIT1•mGppNHp (human, UniProt Q92963 1-219); experiment: fluorescence polarisation; increasing concentrations of RA/RB domains as MBP fusions (0.002–300 μM) added to mGppNHp-bound RAS proteins (1 μM); 30 mM Tris-HCl pH 7.4, 100 mM NaCl, 5 mM MgCl2, 3 mM DTT; quadratic ligand-binding equation
# T7 construct: human RIT1; Loaded with mGppNHp
# T7 sequence (Q92963 whole entry, the tested form may be a part): as the sequence (Q92963 whole entry) above
# RALA, mGppNHp-bound [3] = biological target: T3, RALA, mGppNHp-bound; experiment: fluorescence polarisation; increasing concentrations of the RA/RB domain as MBP fusion protein (0.002-300 µM; or MBP alone) titrated to mGppNHp-bound RAS protein (1 µM); 30 mM Tris-HCl pH 7.4, 100 mM NaCl, 5 mM MgCl2, 3 mM DTT; Kd from a quadratic ligand-binding equation
# HRAS, mGppNHp-bound = biological target: T8, HRAS, mGppNHp-bound (human, UniProt P01112-1 1-189); experiment: as above
# T8 construct: human HRAS; Loaded with mGppNHp, a fluorescent non-hydrolysable GTP analogue; That the RAS proteins were the pGEX (GST) constructs is surmised; also called HRAS1; p21HRAS
# RRAS1, mGppNHp-bound [4] = biological target: T1, RRAS1, mGppNHp-bound; experiment: as above; remark: listed apart in the source
# RALA, mGppNHp-bound [5] = biological target: T3, RALA, mGppNHp-bound; experiment: as above; remark: listed apart in the source
Binder,"Kd (RRAS1, mGppNHp-bound [1]) [µM]","Kd (RIT1, mGppNHp-bound) [µM]","Kd (RAP1B, mGppNHp-bound) [µM]","Kd (RAP2A, mGppNHp-bound) [µM]","Kd (RHEB1, mGppNHp-bound) [µM]",Kd [2] [µM],Kd (RIT1•mGppNHp) [µM],"Kd (RALA, mGppNHp-bound [3]) [µM]","Kd (HRAS, mGppNHp-bound) [µM]","Kd (RRAS1, mGppNHp-bound [4]) [µM]","Kd (RALA, mGppNHp-bound [5]) [µM]"
"RASSF10 RA domain, MBP fusion protein (domain or fragment, human, UniProt A6NK89 4-133, looked up, RASSF10 RA domain, aa 4-133 of A6NK89) SEKKISVWICQEEKLVSGLSRRTTCSDVVRVLLEDGCRRRRRQRRSRRLGSAGDPHGPGELPEPPNEDDEDDDEALPQGMLCGPPQCYCIVEKWRGFERILPNKTRILRLWAAWGEEQENVRFVLVRSEA",99,55,73,67,150,,,,,,
B1,,,,,,30,,,,,
"RASSF9 RA domain, MBP fusion protein (domain or fragment, human, UniProt O75901 25-119, looked up, RASSF9 RA domain, aa 25-119 of O75901) EEKEIVVWVCQEEKLVCGLTKRTTSADVIQALLEEHEATFGEKRFLLGKPSDYCIIEKWRGSERVLPPLTRILKLWKAWGDEQPNMQFVLVKADA",,,74,66,143,,,,,,
"RASSF9 RA domain, His-tagged MBP fusion (domain or fragment, human, UniProt O75901 25-119, looked up, RASSF9 RAS association (RA) domain, aa 25–119 of O75901; Cloned into pMal-c5X-His; Used in fluorescence polarisation and, coupled to Ni-NTA beads, in the pull-down; source: E. coli, purified (Ni-NTA)) EEKEIVVWVCQEEKLVCGLTKRTTSADVIQALLEEHEATFGEKRFLLGKPSDYCIIEKWRGSERVLPPLTRILKLWKAWGDEQPNMQFVLVKADA",,,,,,,27,,,,
"RASSF1 RA domain, MBP fusion protein (domain or fragment, human, UniProt Q9NS23 194-288, looked up, RASSF1 RA domain, aa 194-288 of Q9NS23) RGPGRGTSVRRRTSFYLPKDAVKHLHVLSRTRAREVIEALLRKFLVVDDPRKFALFERAERHGQVYLRKLLDDEQPLRLRLLAGPSDKALSFVLK",33,136,26,22,37,,,18,,,
"RASSF6 RA domain, MBP fusion protein (domain or fragment, human, UniProt Q6ZTQ3 218-306, looked up, RASSF6 RA domain, aa 218-306 of Q6ZTQ3) YNHETSIFIPAFESETKVRVNSNMRTEEVIKQLLQKFKIENSPQDFALHIIFATGEQRRLKKTDIPLLQRLLQGPSEKNARIFLMDKDA",112,98,65,53,56,,,,91,,
"RASSF3 RA domain, MBP fusion protein (domain or fragment, human, UniProt Q86WH2 79-187, looked up, RASSF3 RA domain, aa 79-187 of Q86WH2) YTGFIKVQMELCKPPQTSPNSGKLSPSSNGCMNTLHISSTNTVGEVIEALLKKFLVTESPAKFALYKRCHREDQVYACKLSDREHPLYLRLVAGPRTDTLSFVLREHEI",435,,116,100,64,,,,,,
"RASSF8 RA domain, MBP fusion protein (domain or fragment, human, UniProt Q8NHQ8 1-82, looked up, RASSF8 RA domain, aa 1-82 of Q8NHQ8) MELKVWVDGVQRIVCGVTEVTTCQEVVIALAQAIGRTGRYTLIEKWRDTERHLAPHENPIISLNKWGQYASDVQLILRRTGP",114,76,66,67,102,,,115,,,
"RASSF7 RA domain, MBP fusion protein (domain or fragment, human, UniProt Q02833 6-89, looked up, RASSF7 RA domain, aa 6-89 of Q02833) AAMELKVWVDGIQRVVCGVSEQTTCQEVVIALAQAIGQTGRFVLVQRLREKERQLLPQECPVGAQATCGQFASDVQFVLRRTGP",30,,72,68,76,,,101,,,
"RASSF7 RA domain, His-tagged MBP fusion (domain or fragment, human, UniProt Q02833 6-89, looked up, RASSF7 RAS association (RA) domain, aa 6–89 of Q02833; Cloned into pMal-c5X-His; Used in fluorescence polarisation and, coupled to Ni-NTA beads, in the pull-down; source: E. coli, purified (Ni-NTA)) AAMELKVWVDGIQRVVCGVSEQTTCQEVVIALAQAIGQTGRFVLVQRLREKERQLLPQECPVGAQATCGQFASDVQFVLRRTGP",,,,,,,34,,,,
"RASSF2 RA domain, MBP fusion protein (domain or fragment, human, UniProt P50749 176-264, looked up, RASSF2 RA domain, aa 176-264 of P50749) YNHKTSVFTPAYGSVTNVRINSTMTTPQVLKLLLNKFKIENSAEEFALYVVHTSGEKQKLKATDYPLIARILQGPCEQISKVFLMEKDQ",122,,67,47,44,,,167,,,
"RASSF2-to-1 variant of the RASSF2 RA domain, MBP fusion protein (domain or fragment, human, UniProt P50749 176-264, looked up, RASSF2 RA domain (aa 176-264 of P50749, the limits of the wild-type construct) with four hotspot residues changed to those of RASSF1; source: gene synthesis (BioCat) in pMal-c5X-His vector; E. coli, purified) YNHKTSVFTPKDGSKHNVRINSTMTTPQVLKLLLNKFKIENSAEEFALYVVHTSGEKQKLKATDYPLIARILQGPCEQISKVFLMEKDQ",,,,,,,,,,100,49
"RASSF5 RA domain, MBP fusion protein (domain or fragment, UniProt Q5EBH1 200-358, looked up, RASSF5 RA domain, aa 200-358 of Q5EBH1 as the methods print it; also called NORE1; RAPL) PPTIQEIKQKIDSYNSREKHCLGMKLSEDGTYTGFIKVHLKLRRPVTVPAGIRPQSIYDAIKEVNPAATTDKRTSFYLPLDAIKQLHISSTTTVSEVIQGLLKKFMVVDNPQKFALFKRIHKDGQVLFQKLSIADYPLYLRLLAGPDTDVLSFVLKENE",56,,4,2,46,,,49,,,
"RASSF4 RA domain, MBP fusion protein (domain or fragment, human, UniProt Q9H2L5 174-262, looked up, RASSF4 RA domain, aa 174-262 of Q9H2L5) YNHKTSVFTPAYGSVTNVRVNSTMTTLQVLTLLLNKFRVEDGPSEFALYIVHESGERTKLKDCEYPLISRILHGPCEKIARIFLMEADL",,58,101,88,47,,,191,,,
